The values that follow come from PMC7735678, “Auxin response factors (ARFs) differentially regulate rice antiviral immune response against rice dwarf virus”.

In this data set the target is T1, GST-OsARF12 DBD (Oryza sativa (cDNA of ZH11), UniProt Q0J951 121-247).
T1 sequence: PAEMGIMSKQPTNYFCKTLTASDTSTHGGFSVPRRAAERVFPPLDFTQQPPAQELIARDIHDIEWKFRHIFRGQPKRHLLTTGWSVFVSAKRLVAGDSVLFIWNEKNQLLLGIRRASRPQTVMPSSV
As to the kind of experiment: EMSA; LightShift Chemiluminescent EMSA Kit (Thermo Scientific); buffer, salt, pH and temperature not stated. The note with it: protein: recombinant, tags: GST (N-terminal, pGEX-4T-1), blunt.

B1: OsWRKY13 AuxRE mutant probe (mCold) (dsDNA)
DNA 1: GTTACACCGAAAAAAGCTCACGGAT
DNA 2: ATCCGTGAGCTTTTTTCGGTGTAAC
As to B1, where the note is “label: biotin as probe”, the binding result is “no binding”.

B2: OsWRKY13 promoter AuxRE probe (dsDNA)
DNA 1: TGGTTCGTGATTAAGGGTTTGGTTACACCGTGTCCCGCTCACGGATAGGCTGCTTAATTCTCTTT
DNA 2: AAAGAGAATTAAGCAGCCTATCCGTGAGCGGGACACGGTGTAACCAAACCCTTAATCACGAACCA
As for B2, the binding result (label: biotin) was “binds”.
